Our source for the Km values is article PMC5902328.

Substrate in the data set: N
The data set can be described thus: purified protein. The note with it: aminating direction, co-substrate Fru6P, saturating, no GlcNAc6P activator, 37 °C.

A word on the Km: it is the concentration of substrate that gives half-maximal velocity.

B1: Amuc-NagB (Akkermansia muciniphila ATCC BAA-835) (protein)
chain: MIGVESSRVMRAAPRKAVGRVEASVPWDFSRKYAAVHHSGTISVENARKRSKIGRVMKVETFETPQDAAKALAGEVAELIRTRAAEGKNVVLGLATGATPLPFYAELVRMHKEEGLSFANVISFNLDEYSGLDRDHPESYWYFMHTNLFNHIDIKPENINLPSGTVKDDEIAAHCAAYEQKIKDCGGIDLQILGIGRTGHIGFNEPGSDDTTVTRQVHLDELTRSDAAPAFGGIENVPTTAITMGVATIMGAREVALMAWGEKKASIVKKAVQGPVTVDVAASYLQKHPNAKFLLDKGAASLL
Regarding B1, the Km worked out at 41.3 ± 12.8 mM.
